Measurements taken from PMC7181604, “Arabidopsis FHY3 and FAR1 integrate light and strigolactone signaling to regulate branching”.

Assays:
GST-SPL15SBP = target: T1, GST-SPL15SBP (Arabidopsis thaliana, UniProt Q9M2Q6 56-133); experiment: EMSA; Beyotime EMSA kit, manufacturer's protocol (binding buffer not stated); proteins stored in 5 mM Tris-Cl pH 8.0, 50 mM KCl; conditions: protein: recombinant; tags: GST (N-terminal, pGEX-4T-1); label: biotin; blunt
T1 sequence: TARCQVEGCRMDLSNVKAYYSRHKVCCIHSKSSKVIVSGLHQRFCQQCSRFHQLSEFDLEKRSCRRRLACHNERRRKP

GST-SPL9SBP = target: T2, GST-SPL9SBP (Arabidopsis thaliana, UniProt Q700W2 71-148); experiment: as above; conditions: protein: recombinant; tags: GST (N-terminal, pGEX-4T-1); label: biotin; blunt
T2 sequence: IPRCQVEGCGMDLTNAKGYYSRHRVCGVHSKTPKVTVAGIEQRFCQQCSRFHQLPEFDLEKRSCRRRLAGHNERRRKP

His-FHY3-I = target: T3, His-FHY3-I (Arabidopsis thaliana, UniProt Q9LIE5 1-251); experiment: EMSA; FHY3-I alone; Beyotime EMSA kit, manufacturer's protocol (binding buffer not stated); proteins stored in 5 mM Tris-Cl pH 8.0, 50 mM KCl; conditions: protein: recombinant; tags: 6xHis (pET28a); label: biotin; blunt
T3 sequence: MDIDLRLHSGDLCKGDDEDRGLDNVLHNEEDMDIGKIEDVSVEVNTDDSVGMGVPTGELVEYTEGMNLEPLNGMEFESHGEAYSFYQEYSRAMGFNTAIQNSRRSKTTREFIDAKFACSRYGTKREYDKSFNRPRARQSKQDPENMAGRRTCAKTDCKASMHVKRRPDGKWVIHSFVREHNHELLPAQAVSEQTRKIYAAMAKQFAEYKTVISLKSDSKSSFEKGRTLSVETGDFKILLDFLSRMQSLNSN

B1: BRC1 promoter EMSA probe (PB01/PB02) (dsDNA)
DNA 1: GAAGAAGCCAGCGAGTCCAACCATTATAGTCATGTGGTCCTCCTGATAATTGCAGGCCTA
DNA 2: TAGGCCTGCAATTATCAGGAGGACCACATGACTATAATGGTTGGACTCGCTGGCTTCTTC
GST-SPL15SBP
  binding result: binds
GST-SPL9SBP
  binding result: binds
His-FHY3-I
  binding result: no binding
